{"source": "patent US20230382979A1", "about": "(ADAPTIVE BIOTECHNOLOGIES, published 2023)", "binders": {"B1": {"name": "antibody 2794 (antibody, V domains shown)", "VH": "QVQLVQSGAEVKKPGSSLKVSCKASGGTFNNFAISWVRQAPGQGPEWMGRINPILSAAKYAQKFQGRLTITADKSTTTAYMELSSLRSEDTAVYYCAPTGTGESWWFDPWGQGTLVTVSS", "VL": "QSVLTQPPSASGTPGQRVTISCSGSSSNIGTNYVYWYQQLPGTAPKVLIYGNNQRPSGVPDRFSGSKSGSSASLAISGLRSEDEADYYCAAWDDSLSGPVFGGGTKLTVL"}, "B2": {"name": "antibody 3091 (antibody, V domains shown)", "VH": "QMQLVQSGPEVKKPGTSVKVSCKASGFTFSSSAVQWVRQARGQGLEWIGWIVVGSGNANYAQKLQERVSITRDMSTSTAYMELSSLRPEDTAVYYCAAPHCSRTICHDGFDMWGQGTMVTVSS", "VL": "EIVLTQSPGTLSLSPGERATLSCRASQSVRSSYLAWYQQKPGQAPRLLMFVASSRATGIPDRFSGSGSGTDFTLTISRLEPEDFAVYYCQQYDTSPWTFGQGTKVEIK"}, "B3": {"name": "antibody 941 (antibody, V domains shown)", "VH": "QVQLVQSGAEVKKPGSSVKVSCKASGGTFSNSAINWVRQAPGQGLEWMGGIIPLFGAADYAQKFQARVTITADKSTTTSYMELSSLRSEDTAVYYCARDTLEHDDVWGNFRLSLPLSFWGQGTLVTVSS", "VL": "not shown"}, "B4": {"name": "antibody 4042 (antibody, V domains shown)", "VH": "QITLKESGPTLVKPTQTLTLTCTFSGFSLSSGGVGVGWIRQPPGKALEWLALIYWDDDKRYRPSLKSRLTITRDTSTNQVVLTMTNMDPVDTATYFCARHQIATVFDHWGQGTLVTVSS", "VL": "QSALTQPASVSGSPGQSITISCTGTSSDVGGYNYVSWYQQHPGKAPKLMIYEVSNRPSGVSSRFSGSKSGNTASLTISGLQAEDEADYYCSSYTRSSPLVAFGGGTKVTVL"}, "B5": {"name": "antibody 3995 (antibody, V domains shown)", "VH": "EVQLVQSGAEVKKPGSSVKVSCKASGGTFSMHTIRWVRQAPGQGLEWMGRIIPMLGIVNYAQKFQGRVTISADKSTSTAYMELSSLTSEDTAMYYCAKGSHDVFDIWGQGTMVTVSS", "VL": "not shown"}, "B6": {"name": "antibody 2564 (antibody, V domains shown)", "VH": "QVQLVQSGAEVKKPGSSVRVSCKASGGTFISYTFNWVRQAPGQGLEWMGRIIPIFGIVNYAQKFQGRVTIAADKSTSTAYMELSSLRSEDTAMYYCATATVDYDSGEEQSSFDPWGQGTLVTVSS", "VL": "EIVLTQSPGTLSLSPGERATLSCRASQSVSSSYLAWYQQKAGQTPRLLIYAASSRATGVPDRFSGSGSGTDFTLTISRLEAEDFAVYYCQQSWTFGQGTKVEIK"}}, "key": {"[1]": {"molecular_target": "S2 subunit of the SARS-CoV-2 spike protein, WA01/2020 strain (SARS-CoV-2, WA01/2020 strain, UniProt P0DTC2 686-1213)", "experiment": "ELISA, antibody at 0.1 ug/mL"}, "[2]": {"molecular_target": "SARS-CoV-2 nucleocapsid (N) protein (SARS-CoV-2, UniProt P0DTC9 1-419)", "experiment": "ELISA, antibody at 0.1 ug/mL"}, "[3]": {"molecular_target": "SARS-CoV-2 spike protein, WA1/2020, borne on lentiviral pseudovirus (SARS-CoV-2, WA01/2020 strain, UniProt P0DTC2 14-1273)", "experiment": "cell-based or functional assay"}}}
{"binder": "B1", "values": [{"measurement": "binding result", "setting": "[1]", "value": "no binding (tested: 0.1 ug/mL)"}, {"measurement": "binding result", "setting": "[2]", "value": "no binding (tested: 0.1 ug/mL)"}, {"measurement": "Pseudo Neut, WA1/2020 IC50 (pM)", "setting": "[3]", "value": 232, "unit": "pM"}]}
{"binder": "B2", "values": [{"measurement": "binding result", "setting": "[1]", "value": "no binding (tested: 0.1 ug/mL)"}, {"measurement": "binding result", "setting": "[2]", "value": "no binding (tested: 0.1 ug/mL)"}, {"measurement": "Pseudo Neut, WA1/2020 IC50 (pM)", "setting": "[3]", "value": 59, "unit": "pM"}]}
{"binder": "B3", "values": [{"measurement": "binding result", "setting": "[1]", "value": "no binding (tested: 0.1 ug/mL)"}, {"measurement": "binding result", "setting": "[2]", "value": "no binding (tested: 0.1 ug/mL)"}, {"measurement": "Pseudo Neut, WA1/2020 IC50 (pM)", "setting": "[3]", "value": 610, "unit": "pM"}]}
{"binder": "B4", "values": [{"measurement": "binding result", "setting": "[1]", "value": "no binding (tested: 0.1 ug/mL)"}, {"measurement": "binding result", "setting": "[2]", "value": "no binding (tested: 0.1 ug/mL)"}, {"measurement": "Pseudo Neut, WA1/2020 IC50 (pM)", "setting": "[3]", "value": 209, "unit": "pM"}]}
{"binder": "B5", "values": [{"measurement": "binding result", "setting": "[1]", "value": "no binding (tested: 0.1 ug/mL)"}, {"measurement": "binding result", "setting": "[2]", "value": "no binding (tested: 0.1 ug/mL)"}, {"measurement": "Pseudo Neut, WA1/2020 IC50 (pM)", "setting": "[3]", "value": 3120, "unit": "pM"}]}
{"binder": "B6", "values": [{"measurement": "binding result", "setting": "[1]", "value": "no binding (tested: 0.1 ug/mL)"}, {"measurement": "binding result", "setting": "[2]", "value": "no binding (tested: 0.1 ug/mL)"}, {"measurement": "Pseudo Neut, WA1/2020 IC50 (pM)", "setting": "[3]", "value": 160, "unit": "pM"}]}
